Experimental data published in publication PMC7101364, “The biofilm-associated surface protein Esp of Enterococcus faecalis forms amyloid-like fibers” (NPJ Biofilms and Microbiomes, 2020).

Target: the molecule itself
Experiment: visible aggregation in tubes; 2 uM rEsp_N in phosphate-citrate buffer, pH 3.6 to 8 tested; aggregates at pH 4.0-4.2 seen as a ring on the glass wall after 24 h at 37 °C, 200 rpm

B1: recombinant Esp_N domain (N-terminal domain of the enterococcal surface protein Esp, amino acids 50-743) (domain or fragment)
chain: QMGEGRLANYSASGNTFQENPGYTKNYNFSDLQFNPKAITGDVLQGNTIDFEVYGKHNIAASTANWEIRLQLDERLAQYVEKIQVDPKKGVGNSRRTFVRINDSLGRPTNIWKVNYIRANDGLFAGAETTDTQTAPNGVITFEKNLDEIFKEIGADNLKSDRLMYRIYLVSHQDDDKIVPGIESTGYFLTDQDDFYNKLDVSENNSDQFKHGSVNTKYEEANIQTKDGSGSTGANGAIILDHKLTKEKNFSYSTSAKGTPWYANYKIDERLVPYVSGIQMHMVQADKVAYNVAFESGKKVADLAIERREGHENYGMGSITDNDLTKLIDFANASPRPIVVRYVLQLTKPLDEILEEMKAADKIEENAPFGEDFIFDSWLSDTNKKLIQNTYGTGYYYLQDIDGDGNPDDKEESGDTNPYIGKPELEEVYDVDTTVKGKVFIHELAGTGHKAQLVDKEGTVLAEKTIAPNEKDGAPISDTVEFEFTGVDSSKLIAKDELKIQIVSPGFDKPEEGSTVIKESPKAVDKQTVVVGFKPDAKESIRNNKNLPEDAEYSWKTEPDTSNVTDSTKGIVTVKIGNRTFDVDVEFAVKASQAMENDATYVPITTTPETTIQSGKPTFDKPDVPLANDAFSVLDVYNKDFGNASVDANTGIVTFTPAKGVGESEPITGTIPIKIVYQDGSVGTTDLAVTVSKN
notes: Enterococcal surface protein Esp of Enterococcus faecalis, amplified from strain 11279; N-terminal domain, amino acids 50-743 of the 1873-residue protein; No cleavage of the tag is mentioned; also called N-terminus of Esp; not shown: His tag (from the vector pET46-Ek/LIC)
**Q.** Does B1 bind?
**A.** binds
